Here are results for two compounds from patent US20170119864A1, “SACCHARIDE VACCINE FORMULATION” (GLAXOSMITHKLINE BIOLOGICALS S.A., priority 2013, published 2017).

Molecules are shown by their SMILES. Bounds are passed on as bounds.

Series [1] in a line: RP-HPLC MAG-Tn3 content before and after 0.2 μm filtration. Type of series: physicochemical. The note with it: L-arginine-L-arginine-mono-hydrochloride buffer system. On the procedure: RP-HPLC was performed to assess MAG-Tn3 content in the formulations before and after filtration with a 0.2 μm syringe filter. A Waters 2996 HPLC equipped with UV detection was used with a Poros R 1/10 column from Applied Biosciences and a 0-100% acetonitrile in 0.1% triflouroacetic acid gradient. Size-exclusion chromatography was performed using a Waters 2996 HPLC equipped with a fluorescence detector (Waters) to assess the aggregation profiles of the resulting formulations using a TSKgel G3000PWxl column (Tosoh Bioscience LLC) and a mobile phase of 200 mM NaCl. SDS-PAGE analysis was done using 4-12% Bis-Tris gels (Invitrogen) and MES running buffer (Invitrogen). The gels were stained using Invitrogen's SilverQuest. Centrifuged and non-centrifuged samples were run on gel to assess the presence of precipitate in the formulations. Centrifugation was performed for 15 minutes at 18 000 g. […]
RP-HPLC was performed to assess MAG-Tn3 content in the formulations before and after filtration with a 0.2 μm syringe filter. […] Size-exclusion chromatography was performed using a Waters 2996 HPLC equipped with a fluorescence detector (Waters) to assess the aggregation profiles of the resulting formulations using a TSKgel G3000PWxl column (Tosoh Bioscience LLC) and a mobile phase of 200 mM NaCl. […]

For series [2] the following is noted: value used in equation 1; cited from earlier work.

For the compound `CC[C@H](C)[C@H](NC(=O)CNC(=O)[C@@H](NC(=O)[C@H](Cc1ccccc1)NC(=O)[C@H](CCCCN)NC(=O)[C@H](CO)NC(=O)[C@H](CC(N)=O)NC(=O)[C@H](C)NC(=O)[C@H](CCCCN)NC(=O)[C@@H](NC(=O)[C@H](Cc1ccc(O)cc1)NC(=O)[C@H](CCC(N)=O)NC(=O)C(NC(=O)C(NC(=O)C(N)CO[C@H]1O[C@H](CO)[C@H](O)[C@H](O)[C@H]1NC(C)=O)C(C)O[C@H]1O[C@H](CO)[C@H](O)[C@H](O)[C@H]1NC(C)=O)C(C)O[C@H]1O[C@H](CO)[C@H](O)[C@H](O)[C@H]1NC(C)=O)[C@@H](C)CC)[C@@H](C)CC)C(=O)N[C@H](C(=O)N[C@@H](CCC(=O)O)C(=O)N[C@@H](CC(C)C)C(=O)NCCCC[C@H](NC(=O)[C@H](CC(C)C)NC(=O)[C@H](CCC(=O)O)NC(=O)[C@@H](NC(=O)[C@@H](NC(=O)CNC(=O)[C@@H](NC(=O)[C@H](Cc1ccccc1)NC(=O)[C@H](CCCCN)NC(=O)[C@H](CO)NC(=O)[C@H](CC(N)=O)NC(=O)[C@H](C)NC(=O)[C@H](CCCCN)NC(=O)[C@@H](NC(=O)[C@H](Cc1ccc(O)cc1)NC(=O)[C@H](CCC(N)=O)NC(=O)C(NC(=O)C(NC(=O)C(N)CO[C@H]1O[C@H](CO)[C@H](O)[C@H](O)[C@H]1NC(C)=O)C(C)O[C@H]1O[C@H](CO)[C@H](O)[C@H](O)[C@H]1NC(C)=O)C(C)O[C@H]1O[C@H](CO)[C@H](O)[C@H](O)[C@H]1NC(C)=O)[C@@H](C)CC)[C@@H](C)CC)[C@@H](C)CC)[C@@H](C)O)C(=O)NCCCC[C@H](NC(=O)[C@H](CCCCNC(=O)[C@H](CC(C)C)NC(=O)[C@H](CCC(=O)O)NC(=O)[C@@H](NC(=O)[C@@H](NC(=O)CNC(=O)[C@@H](NC(=O)[C@H](Cc1ccccc1)NC(=O)[C@H](CCCCN)NC(=O)[C@H](CO)NC(=O)[C@H](CC(N)=O)NC(=O)[C@H](C)NC(=O)[C@H](CCCCN)NC(=O)[C@@H](NC(=O)[C@H](Cc1ccc(O)cc1)NC(=O)[C@H](CCC(N)=O)NC(=O)C(NC(=O)C(NC(=O)C(N)CO[C@H]1O[C@H](CO)[C@H](O)[C@H](O)[C@H]1NC(C)=O)C(C)O[C@H]1O[C@H](CO)[C@H](O)[C@H](O)[C@H]1NC(C)=O)C(C)O[C@H]1O[C@H](CO)[C@H](O)[C@H](O)[C@H]1NC(C)=O)[C@@H](C)CC)[C@@H](C)CC)[C@@H](C)CC)[C@@H](C)O)NC(=O)[C@H](CC(C)C)NC(=O)[C@H](CCC(=O)O)NC(=O)[C@@H](NC(=O)[C@@H](NC(=O)CNC(=O)[C@@H](NC(=O)[C@H](Cc1ccccc1)NC(=O)[C@H](CCCCN)NC(=O)[C@H](CO)NC(=O)[C@H](CC(N)=O)NC(=O)[C@H](C)NC(=O)[C@H](CCCCN)NC(=O)[C@@H](NC(=O)[C@H](Cc1ccc(O)cc1)NC(=O)[C@H](CCC(N)=O)NC(=O)C(NC(=O)C(NC(=O)C(N)CO[C@H]1O[C@H](CO)[C@H](O)[C@H](O)[C@H]1NC(C)=O)C(C)O[C@H]1O[C@H](CO)[C@H](O)[C@H](O)[C@H]1NC(C)=O)C(C)O[C@H]1O[C@H](CO)[C@H](O)[C@H](O)[C@H]1NC(C)=O)[C@@H](C)CC)[C@@H](C)CC)[C@@H](C)CC)[C@@H](C)O)C(=O)NCCC(=O)O)[C@@H](C)O` (stereo partly drawn) [MAG-Tn3], in series [1] (with CpG7909), the “dose up to which MAG-Tn3 appears soluble” value is ≤ 450 μg/dose. In addition, the solubility in series [1] (with CpG7909, final reconstituted vaccine, read-out: concentration up to which MAG-Tn3 appears soluble) was ≤ 900 µg/mL.

As to `N=C(N)NCCC[C@H](N)C(=O)O` [Arginine], in series [2], the pKa result is “molar ratios of Arg:ArgHCl (Arg pKa = 8.991)”.
